Measurements: publication PMC4678811, “Assembly and dynamics of the U4/U6 di-snRNP by single-molecule FRET” (Nucleic Acids Research, 2015)
Values joined by “and” are separate entries in the source; they are usually repeats but may differ in a detail not shown here. Equal values may be shown once.

Experiments:
[1] = test system: LSm2-LSm8 complex (Saccharomyces cerevisiae); experiment: EMSA; conditions: apparent; Hill 1.7; EMSA: 2 nM RNA, 10 mM K-HEPES pH 7.5, 100 mM KCl, 0.01% NP-40, 20 ug E. coli tRNA in 100 ul, on ice 60 min, 4% native gel 0.5X TBE 4 C; smFRET: 10 mM Tris-HCl …
[2] = test system: Prp3/4 (Prp3-Prp4 complex) (Saccharomyces cerevisiae); experiment: EMSA; conditions: apparent; Hill 2.6; EMSA: 2 nM RNA, 10 mM K-HEPES pH 7.5, 100 mM KCl, 0.01% NP-40, 20 ug E. coli tRNA in 100 ul, on ice 60 min, 4% native gel 0.5X TBE 4 C; smFRET: 10 mM Tris-HCl …
[3] = test system: Prp31 (Saccharomyces cerevisiae); experiment: EMSA; conditions: apparent; Hill 1.9; EMSA: 2 nM RNA, 10 mM K-HEPES pH 7.5, 100 mM KCl, 0.01% NP-40, 20 ug E. coli tRNA in 100 ul, on ice 60 min, 4% native gel 0.5X TBE 4 C; smFRET: 10 mM Tris-HCl …
[4] = test system: Sm protein complex (SmB, D1, D2, D3, E, F, G) (Saccharomyces cerevisiae); experiment: EMSA; conditions: apparent; Hill 3.5; EMSA: 2 nM RNA, 10 mM K-HEPES pH 7.5, 100 mM KCl, 0.01% NP-40, 20 ug E. coli tRNA in 100 ul, on ice 60 min, 4% native gel 0.5X TBE 4 C; smFRET: 10 mM Tris-HCl …
[5] = test system: Snu13 (Saccharomyces cerevisiae); experiment: EMSA; conditions: apparent; Hill 1; EMSA: 2 nM RNA, 10 mM K-HEPES pH 7.5, 100 mM KCl, 0.01% NP-40, 20 ug E. coli tRNA in 100 ul, on ice 60 min, 4% native gel 0.5X TBE 4 C; smFRET: 10 mM Tris-HCl …
[6] = molecular target: the molecule itself; experiment: native MS; minor peaks of the Mono-Q column after the main peak of the purified LSm2–LSm8 complex

Molecule: U4/U6 snRNA duplex (full length)
- Kd [1]: 5 nM
- Kd [2]: 57 nM
- Kd [3]: 243 nM
- Kd [4]: 89 nM
- Kd [5]: 17 nM

B1: LSm2–LSm8 complex (complex, Saccharomyces cerevisiae)
chain 1: MLFFSFFKTLVDQEVVVELKNDIEIKGTLQSVDQFLNLKLDNISCTDEKKYPHLGSVRNIFIRGSTVRYVYLNKNMVDTNLLQDATRREVMTERK
chain 2: METPLDLLKLNLDERVYIKLRGARTLVGTLQAFDSHCNIVLSDAVETIYQLNNEELSESERRCEMVFIRGDTVTLISTPSEDDDGAVEI
chain 3: MLPLYLLTNAKGQQMQIELKNGEIIQGILTNVDNWMNLTLSNVTEYSEESAINSEDNAESSKAVKLNEIYIRGTFIKFIKLQDNIIDKVKQQINSNNNSNSNGPGH
chain 4: MSLPEILPLEVIDKTINQKVLIVLQSNREFEGTLVGFDDFVNVILEDAVEWLIDPEDESRNEKVMQHHGRMLLSGNNIAILVPGGKKTPTEAL
chain 5: MSGKASTEGSVTTEFLSDIIGKTVNVKLASGLLYSGRLESIDGFMNVALSSATEHYESNNNKLLNKFNSDVFLRGTQVMYISEQKI
chain 6: MHQQHSKSENKPQQQRKKFEGPKREAILDLAKYKDSKIRVKLMGGKLVIGVLKGYDQLMNLVLDDTVEYMSNPDDENNTELISKNARKLGLTVIRGTILVSLSSAEGSDVLYMQK
chain 7: MSATLKDYLNKRVVIIKVDGECLIASLNGFDKNTNLFITNVFNRISKEFICKAQLLRGSEIALVGLIDAENDDSLAPIDEKKVPMLKDTKNKIENEHVIWEKVYESKTK
notes: LSm2, Saccharomyces cerevisiae, untagged; LSm3, Saccharomyces cerevisiae, untagged; LSm4, Saccharomyces cerevisiae, amino acids 1-106, untagged; LSm5, Saccharomyces cerevisiae; LSm6, Saccharomyces cerevisiae, untagged; LSm7, Saccharomyces cerevisiae, untagged; LSm8, Saccharomyces cerevisiae; Both tags are TEV-cleavable; also called LSm 2–8 complex; LSm complex; source: S. cerevisiae BCY123, …
- stoichiometry N [6]: 2 and 3
